Key:
human cancer cells = test: Direct binding of biotin-conjugated NKp44-derived peptides to human cancer cells (flow cytometry); settings: biotin-conjugated peptide 10 μg/well; number in brackets is an undefined grade
NKp44-Ig = biological target: T1, NKp44-Ig (Homo sapiens, UniProt O95944); test: Effect of peptides on NKp44-Ig binding to tumor cells (flow cytometry); settings: for Effect on NKp44-Ig binding to tumor cells: 2 μg/well NKp44-Ig, 10 μg/well peptide, 1.5 hr, number in brackets is an undefined grade
T1 construct: fusion proteins containing the extracellular domains NKp30, NKp44 or NKp46 fused to the Fc portion of human IgG1
T1 sequence (O95944 22-192 limits assumed): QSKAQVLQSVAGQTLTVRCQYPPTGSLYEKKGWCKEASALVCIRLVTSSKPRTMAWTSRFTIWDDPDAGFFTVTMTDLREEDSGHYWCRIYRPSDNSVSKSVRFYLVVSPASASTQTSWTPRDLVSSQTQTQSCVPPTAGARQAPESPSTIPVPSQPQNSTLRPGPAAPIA
Protocol: (§1) Binding of rNK receptors and binding inhibition assays were performed as follows: 1×10^5 target cells were incubated with 2 μg of the NK receptor-Ig and 5 or 10 μg of the peptides in staining solution consisting of 0.5% (w/v) BSA and 0.05% sodium azide in PBS at 4° C. for 1.5 hrs. Then, cells were washed and stained with APC-conjugated anti-human IgG. Dead cells were detected with propidium iodide (PI). Percentage of inhibition was calculated as the percent of the cell population showing a reduced staining by the NK receptor-Ig in the presence of peptides as compared to reference positive staining by the NK receptor-Ig without peptides. […] Flow cytometry was performed using a FACSCanto II or FACScalibur (BD Bioscience) and results were analyzed using Diva 6.1.2 or CellQuest 3.3, respectively.
Target cells were incubated for 1.5 hr with 2 μg/well NKp44-Ig and 10 μg/well of each peptide. NKp44-Ig binding intensity was determined by flow cytometry, using fluorescent 2Ab (goat anti-mouse mAb).
(§2) Target cells were stained with 2 μg/well of NK receptor-Igs in the presence of 10 μg/well of SEQ ID NO: 4, 5, 55 (15mer-shared core sequence between SEQ ID NO:4 and 5), or SEQ ID NO: 1. The NK receptor-Ig staining intensities were determined by flow cytometry, using fluorescent APC-conjugated F(ab′)2 goat anti-human IgG.

[1] = tested on: human cancer cells, MIN6 murine beta cell line and primary mouse beta cells; test: Direct binding of biotin-conjugated NKp46-derived peptides to target cells (flow cytometry, fluorescent Streptavidin); settings: biotin-conjugated peptide 10 μg/well, number in brackets is an undefined grade
NKp46D2-Ig = biological target: T2, NKp46D2-Ig (Homo sapiens, UniProt O76036); test: Effect of peptides on NKp46D2-Ig binding to target cells (flow cytometry); settings: for Effect on NKp46D2L binding to cells: 1.5 hr, compared to staining without peptide or with non-affecting peptides, number in brackets is an undefined grade
T2 construct: made in house
Protocol: as §1
(§3) Target cells were incubated for 1.5 hr with 2 μg/well NKp46D2-Ig and 10 μg/well of each peptide. NKp46D2-Ig binding intensity was determined by flow cytometry, using fluorescent 2Ab (goat anti-mouse monoclonal antibody).
as §2

LIR1-Ig = biological target: T3, LIR1-Ig (Homo sapiens, UniProt Q8NHL6); test: Effect of peptides on LIR1-Ig binding to target cells (flow cytometry); settings: for Binding of LIR1-Ig in the presence of peptide: Example 1, FIGS. 3 and 5, HeLa cells
T3 construct: made in house
Protocol: as §1, with “target cells were incubated with 2 μg of the NK receptor-Ig and 5 or 10 μg of the peptides in staining solution consisting” left out
as §3, §2

NKp30-Ig = biological target: T4, NKp30-Ig (Homo sapiens, UniProt O14931); test: Effect of peptide on NKp30-Ig binding to HeLa cells (flow cytometry); settings: pep4 0.625 to 10 μg/well, FIG. 9D
T4 construct: fusion proteins containing the extracellular domains NKp30, NKp44 or NKp46 fused to the Fc portion of human IgG1; made in house
T4 sequence (O14931 19-135 limits assumed): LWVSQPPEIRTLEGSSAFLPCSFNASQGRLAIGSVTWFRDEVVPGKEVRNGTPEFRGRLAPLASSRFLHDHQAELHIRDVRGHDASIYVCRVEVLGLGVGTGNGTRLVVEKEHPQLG
Protocol: as §1, with “target cells were incubated with 2 μg of the NK receptor-Ig and 5 or 10 μg of the peptides in staining solution consisting” left out
as §2

[2] = tested on: NKp46-expressing NK cells; test: Flow cytometry cytotoxicity assay: lysis of target tumor cells by human primary NK cells; type: cell-based
Protocol: (§4) NK cells were isolated from the peripheral blood of healthy donors using a human NK cell isolation kit (Miltenyi Biotec). NK purity was greater than 90% (CD3^−CD56^±). Purified NK cells were cultured in CellGro SCGM serum-free medium (CellGenix, 2001) supplemented with 10% heat inactivated human plasma from healthy donors, 1 mM sodium pyruvate, 2 mM L-glutamine, MEM non-essential amino acids, 1% penicillin/streptomycin, 10 mM HEPES (Gibco™) and 300 IU/ml of human IL-2 (Biological Industries Israel Ltd).
(§5) The flow cytometry cytotoxicity assay was previously described (Flodstrom et al. Diabetes 48, 706-713 (1999)). Effector human primary NK cells were labeled with CellTrace CFSE (Invitrogen, C3554). Analysis of 7-AAD for negative-CFSE target tumor cells was performed using a FACSCantoII and data were analyzed by Diva 6.1.2. For blocking experiments, NK cells were pre-incubated with mouse polyclonal anti-NKp46 serum or with naive serum 30 min at 4° C. before being combined with target cells. The NK degranulation assay was performed as previously described (Raulet, D. H. Nat Rev Immunol 3, 781-790 (2003); Biassoni, R. et al. Eur J Immunol 29, 1014-1020 (1999)).
Next, the influence of the peptide of SEQ ID NO: 4 on NK cells function was investigated. Target HeLa cells were plated and pep4 or mock peptide was added just before adding an effector human primary NK cell line. […] To verify that the peptide of SEQ ID NO: 4 inhibits NKp46-mediated lysis, anti-NKp46 serum was used to block the receptor on human primary NK cells.

NKp46-Ig = biological target: T5, NKp46-Ig (Homo sapiens, UniProt O76036); test: Effect of peptides on NKp46-Ig binding to tumor cells (flow cytometry); settings: Example 3, FIG. 9B/9C; 10 μg/well peptide; to a lesser extent than NKp46D2-Ig binding
T5 construct: fusion proteins containing the extracellular domains NKp30, NKp44 or NKp46 fused to the Fc portion of human IgG1; made in house
Protocol: as §1, §2

human primary NK cells = test: CD107a (LAMP-1) degranulation assay of human primary NK cells; type: cell-based; settings: co-cultured with HeLa or 721.221 target cells for four hours at different E:T ratios; FIG. 10C, p<0.05
Protocol: as §4
as §5, with “1014-1020 (1999)). […]” for “1014-1020 (1999)).”

[3] = 2 μg/well NKp46D2-Ig, 10 μg/well peptide
[4] = HeLa cells, pep4 0.625 to 10 μg/well, FIG. 9D

T5 sequence (O76036 22-258 limits assumed): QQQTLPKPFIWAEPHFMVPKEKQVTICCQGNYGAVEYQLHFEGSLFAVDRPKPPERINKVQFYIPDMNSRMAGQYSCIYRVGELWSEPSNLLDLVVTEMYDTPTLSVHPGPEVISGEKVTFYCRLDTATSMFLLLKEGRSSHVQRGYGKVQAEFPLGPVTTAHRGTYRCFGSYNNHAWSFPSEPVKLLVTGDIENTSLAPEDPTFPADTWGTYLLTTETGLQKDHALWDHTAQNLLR
T2 sequence (O76036 with tags, fused parts or gaps isoform O76036-6): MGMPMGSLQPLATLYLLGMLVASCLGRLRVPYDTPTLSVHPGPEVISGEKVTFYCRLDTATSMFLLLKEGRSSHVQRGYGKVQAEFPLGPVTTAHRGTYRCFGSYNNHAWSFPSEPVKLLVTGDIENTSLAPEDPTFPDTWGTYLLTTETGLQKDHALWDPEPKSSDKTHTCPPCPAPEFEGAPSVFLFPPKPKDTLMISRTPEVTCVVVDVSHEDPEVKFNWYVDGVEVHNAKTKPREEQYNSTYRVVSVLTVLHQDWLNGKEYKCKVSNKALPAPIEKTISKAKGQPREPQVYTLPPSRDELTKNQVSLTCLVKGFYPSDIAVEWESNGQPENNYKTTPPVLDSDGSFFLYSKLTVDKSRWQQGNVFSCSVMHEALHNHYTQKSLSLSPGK
T3 sequence (Q8NHL6 24-461 limits assumed): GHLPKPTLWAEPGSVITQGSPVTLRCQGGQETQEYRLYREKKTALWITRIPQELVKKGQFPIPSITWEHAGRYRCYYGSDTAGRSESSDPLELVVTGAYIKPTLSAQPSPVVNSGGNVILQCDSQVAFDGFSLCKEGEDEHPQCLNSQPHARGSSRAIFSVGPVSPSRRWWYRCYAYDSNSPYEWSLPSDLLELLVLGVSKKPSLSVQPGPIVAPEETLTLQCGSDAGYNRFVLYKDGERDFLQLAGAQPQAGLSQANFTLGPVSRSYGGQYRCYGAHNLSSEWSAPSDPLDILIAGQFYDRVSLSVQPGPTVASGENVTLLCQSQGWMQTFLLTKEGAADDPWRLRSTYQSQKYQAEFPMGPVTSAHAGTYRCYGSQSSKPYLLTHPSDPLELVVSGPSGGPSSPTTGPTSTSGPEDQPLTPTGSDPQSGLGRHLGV

What does the source list for “KGWCK EASAL VCIRL VTSSK (KGWCKEASALVCIRLVTSSK) [SEQ ID NO: 31]”?
Direct binding to tumor cells (human cancer cells): Yes (1); Effect on NKp44-Ig binding to tumor cells (NKp44-Ig): Enhance (1)

Which results are given for “TTAHR GTYRC FGSYN NHAWS (TTAHRGTYRCFGSYNNHAWS) [SEQ ID NO: 13]”?
Direct binding to cells [1]: direct binding; Direct binding to cells ([1]; listed as 13): Yes (2); Effect on NKp46D2L binding to cells (NKp46D2-Ig; [3]): enhancing NKp46D2-Ig binding; Effect on NKp46D2L binding to cells (NKp46D2-Ig; 2 μg/well NKp46D2-Ig, 10 μg/well peptide, listed as 13): Enhance (1.5); Binding of LIR1-Ig in the presence of peptide (LIR1-Ig): not affected

How did the “Direct binding to cells” value [1] turn out when “LDTAT SMFLL LKEGR SSHVQ (LDTATSMFLLLKEGRSSHVQ) [SEQ ID NO: 6]” was run?
Its value is “No”.

What about the “Effect on NKp46D2L binding to cells” value (NKp46D2-Ig; [3]) of the same substance?
Its value is “inhibiting binding”.

And the “Effect on NKp46D2L binding to cells” value (NKp46D2-Ig; 2 μg/well NKp46D2-Ig, 10 μg/well peptide, listed as 6)?
Its value is “Suppress (1)”.

And the “Binding of LIR1-Ig in the presence of peptide” value (“Binding of LIR1-Ig” for short) (LIR1-Ig)?
The value was “not affected”.

“SMFLL LKEGR SSHVQ RGYGK (SMFLLLKEGRSSHVQRGYGK) [SEQ ID NO: 7]” was tested. Which “Direct binding to cells” value [1] did it give?
Its value is “direct binding”.

And the “Direct binding to cells” value ([1]; listed as 7)?
Its value is “Yes (1)”.

And the “Effect on NKp46D2L binding to cells” value (NKp46D2-Ig; [3])?
Its value is “enhancing NKp46D2-Ig binding”.

And the “Effect on NKp46D2L binding to cells” value (NKp46D2-Ig; 2 μg/well NKp46D2-Ig, 10 μg/well peptide, listed as 7)?
The value was “Enhance (2)”.

What about the “Binding of LIR1-Ig” value (LIR1-Ig) of the same substance?
The value was “not affected”.

Which “Binding inhibition of NKp30-Ig” value (NKp30-Ig) does the source give for “SGEKV TFYCR LDTAT SMFLL (SGEKVTFYCRLDTATSMFLL) [SEQ ID NO: 4]” here?
Its value is “did not induce significant binding inhibition”.

What about the “Lysis of target 721.221 and CHO-K1 cells by NK cells” value ([2]; 721.221 and CHO-K1 target cells) of the same substance?
Its value is “inhibition of lysis”.

And the “Lysis of target cells by NKp46-expressing NK cells” value ([2]; Example 1)?
Its value is “inhibit lysis”.

What about the “Blocking effect of anti-NKp46 serum on lysis when the peptide was present” value ([2]; anti-NKp46 serum compared to control serum, FIG. 10B) of the same substance?
Its value is “no blocking effect was observed”.

And the “Lysis of target cells in the presence of control serum” value ([2]; compared to control peptide, 15:1 E:T, FIG. 10B, p<0.01)?
Its value is “inhibited lysis”.

And the “Lysis of target HeLa cells by human primary NK cell line” value ([2]; compared to mock1, 4 hr, FIG. 10A, p<0.01)?
Its value is “significantly suppressed”.

And the “NKp46-Ig binding to tumor cells in the presence of peptide” value (NKp46-Ig)?
Its value is “inhibited”.

And the “Percentage of CD107a+ NK cells” value (human primary NK cells)?
Its value is “significantly reduced”.

And the “Direct binding to cells” value [1]?
The value was “No”.

What about the “Binding inhibition of NKp44-Ig” value (NKp44-Ig; [4]) of the same substance?
The value was “did not induce significant binding inhibition”.

What about the “Effect on NKp46D2L binding to cells” value (NKp46D2-Ig; [3]) of the same substance?
Its value is “inhibiting binding”.

And the “Effect on NKp46D2L binding to cells” value (NKp46D2-Ig; 2 μg/well NKp46D2-Ig, 10 μg/well peptide, listed as 4)?
Its value is “Suppress (2)”.

And the “Binding of NKp46D2-Ig to HeLa cells upon co-incubation with peptide” value (NKp46D2-Ig; Example 3, FIG. 9A, 2 μg/well NKp46D2-Ig, 10 μg/well peptide)?
The value was “inhibited binding”.

And the “Inhibition of rNKp46 binding across tumor cell lines” value (NKp46D2-Ig; HeLa, PC-3, HEK293T, 721.221, CHO-K1 and MIN-6 cells, FIG. 9C)?
The value was “evident for numerous tumor cell lines”.

What about the “Binding of LIR1-Ig” value (LIR1-Ig) of the same substance?
Its value is “not affected”.

And the “Binding inhibition of LIR1-Ig” value (LIR1-Ig; [4])?
Its value is “did not induce significant binding inhibition”.

What does the source list for “VTSSK PRTVA WTSRF TIWDD (VTSSKPRTVAWTSRFTIWDD) [SEQ ID NO: 34]”?
Direct binding to tumor cells (human cancer cells): No; Effect on NKp44-Ig binding to tumor cells (NKp44-Ig): inhibiting binding; Effect on NKp44-Ig binding to tumor cells (NKp44-Ig; listed as 34): Suppress (1.5)

“VCIRL VTSSK PRIMA WTSRF (VCIRLVTSSKPRTMAWTSRF) [SEQ ID NO: 33]” was tested. Which “Effect on NKp44-Ig binding to tumor cells” value (NKp44-Ig) did it give?
Its value is “Enhance (1)”.

Which “NKp46-Ig binding to tumor cells in the presence of peptide” value (NKp46-Ig) does the source give for “TFYCR LDTAT SMFLL (TFYCRLDTATSMFLL) [SEQ ID NO: 55]” here?
Its value is “also inhibited”.

Which results are given for “TFYCR LDTAT SMFLL LKEGR (TFYCRLDTATSMFLLLKEGR) [SEQ ID NO: 5]”?
NKp46-Ig binding to tumor cells in the presence of peptide (NKp46-Ig): inhibited; Direct binding to cells [1]: No; Effect on NKp46D2L binding to cells (NKp46D2-Ig; [3]): inhibiting binding; Effect on NKp46D2L binding to cells (NKp46D2-Ig; 2 μg/well NKp46D2-Ig, 10 μg/well peptide, listed as 5): Suppress (2); Binding of LIR1-Ig in the presence of peptide (LIR1-Ig): not affected

With “EASAL VCIRL VTSSK PRTVA (EASALVCIRLVTSSKPRTVA) [SEQ ID NO: 32]” as the substance, how does the “Direct binding to tumor cells” value (human cancer cells) read?
Its value is “Yes (1)”.

What about the “Effect on NKp44-Ig binding to tumor cells” value (NKp44-Ig) of the same substance?
The value was “Enhance (1)”.

How did the “Direct binding to cells” value [1] turn out when “PLGPV TTAHR GTYRC FGSYN (PLGPVTTAHRGTYRCFGSYN) [SEQ ID NO: 12]” was run?
Its value is “direct binding”.

And the “Direct binding to cells” value ([1]; listed as 12)?
The value was “Yes (3)”.

What about the “Effect on NKp46D2L binding to cells” value (NKp46D2-Ig; [3]) of the same substance?
The value was “enhancing NKp46D2-Ig binding”.

And the “Effect on NKp46D2L binding to cells” value (NKp46D2-Ig; 2 μg/well NKp46D2-Ig, 10 μg/well peptide, listed as 12)?
The value was “Enhance (3)”.

What about the “Binding of LIR1-Ig” value (LIR1-Ig) of the same substance?
The value was “not affected”.
